Experimental data from paper PMC1762332, “Catalases Are NAD(P)H-Dependent Tellurite Reductases” (PLoS ONE, 2006).

Substrate: O=[Te](O)O
Test: purified protein
Conditions: NADPH 10 mM (50 µl of 0.2 M in 1 ml), Tris-HCl pH 8.0 (50 mM), aerobic

B1: bovine liver catalase (Bos taurus) (protein)
chain: ADNRDPASDQMKHWKEQRAAQKPDVLTTGGGNPVGDKLNSLTVGPRGPLLVQDVVFTDEMAHFDRERIPERVVHAKGAGAFGYFEVTHDITRYSKAKVFEHIGKRTPIAVRFSTVAGESGSADTVRDPRGFAVKFYTEDGNWDLVGNNTPIFFIRDALLFPSFIHSQKRNPQTHLKDPDMVWDFWSLRPESLHQVSFLFSDRGIPDGHRHMNGYGSHTFKLVNANGEAVYCKFHYKTDQGIKNLSVEDAARLAHEDPDYGLRDLFNAIATGNYPSWTLYIQVMTFSEAEIFPFNPFDLTKVWPHGDYPLIPVGKLVLNRNPVNYFAEVEQLAFDPSNMPPGIEPSPDKMLQGRLFAYPDTHRHRLGPNYLQIPVNCPYRARVANYQRDGPMCMMDNQGGAPNYYPNSFSAPEHQPSALEHRTHFSGDVQRFNSANDDNVTQVRTFYLKVLNEEQRKRLCENIAGHLKDAQLFIQKKAVKNFSDVHPEYGSRIQALLDKYNEEKPKNAVHTYVQHGSHLSAREKANL
- Km: 900 µM
